Patent US20260234242A1 (HAINAN SIMCERE ZAIMING PHARMACEUTICAL, published 2026)

T1: human CDH6 on tumor cells (OVCAR3 cells, PA-1 cells) (human, UniProt P55285 54-790)
T1 sequence: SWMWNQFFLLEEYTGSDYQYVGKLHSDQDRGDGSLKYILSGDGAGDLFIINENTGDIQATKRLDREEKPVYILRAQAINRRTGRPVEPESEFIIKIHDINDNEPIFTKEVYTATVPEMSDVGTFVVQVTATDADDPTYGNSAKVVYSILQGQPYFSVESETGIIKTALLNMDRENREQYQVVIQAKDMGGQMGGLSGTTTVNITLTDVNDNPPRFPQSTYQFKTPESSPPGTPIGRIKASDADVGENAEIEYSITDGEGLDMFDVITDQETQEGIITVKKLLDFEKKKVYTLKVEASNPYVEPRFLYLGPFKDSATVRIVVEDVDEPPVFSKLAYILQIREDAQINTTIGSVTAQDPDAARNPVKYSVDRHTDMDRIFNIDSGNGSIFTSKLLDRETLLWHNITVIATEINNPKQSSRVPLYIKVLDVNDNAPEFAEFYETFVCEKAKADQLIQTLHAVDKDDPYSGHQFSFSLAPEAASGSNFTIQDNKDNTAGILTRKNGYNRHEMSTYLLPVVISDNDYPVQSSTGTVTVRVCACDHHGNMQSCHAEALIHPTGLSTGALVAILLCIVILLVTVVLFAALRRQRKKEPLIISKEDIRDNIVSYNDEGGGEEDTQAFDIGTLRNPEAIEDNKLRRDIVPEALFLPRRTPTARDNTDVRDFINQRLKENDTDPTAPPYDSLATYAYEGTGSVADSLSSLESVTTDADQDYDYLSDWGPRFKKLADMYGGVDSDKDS

T2: monkey CDH6 protein (cynoCDH6 ECD-his) (monkey (cyno), UniProt A0A2K5TW62 19-615)
T2 construct: range 19-615; also called Cyno CDH6-his; not shown: his tag
T2 sequence: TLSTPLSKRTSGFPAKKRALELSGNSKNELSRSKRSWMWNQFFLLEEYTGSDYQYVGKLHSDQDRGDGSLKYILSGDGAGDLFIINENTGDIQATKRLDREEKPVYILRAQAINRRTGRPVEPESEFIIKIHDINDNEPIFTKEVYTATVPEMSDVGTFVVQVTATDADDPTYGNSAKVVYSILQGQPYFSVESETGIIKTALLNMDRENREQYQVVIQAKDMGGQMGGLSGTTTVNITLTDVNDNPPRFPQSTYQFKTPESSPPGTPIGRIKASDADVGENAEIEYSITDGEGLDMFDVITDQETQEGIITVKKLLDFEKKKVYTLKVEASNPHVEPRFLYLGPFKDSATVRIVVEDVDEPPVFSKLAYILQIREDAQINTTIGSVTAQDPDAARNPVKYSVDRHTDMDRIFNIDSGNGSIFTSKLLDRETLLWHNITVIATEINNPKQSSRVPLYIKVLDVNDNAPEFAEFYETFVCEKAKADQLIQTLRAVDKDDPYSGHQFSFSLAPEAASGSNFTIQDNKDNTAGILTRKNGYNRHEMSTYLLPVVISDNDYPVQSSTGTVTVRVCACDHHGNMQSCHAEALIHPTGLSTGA


Columns and labels:
[1] = biological target: T1, human CDH6 on tumor cells (OVCAR3 …); assay: FACS, PA-1 cells
Protocol: (§1) OVCAR3 cells with high expression of CDH6 and PA-1 cells with moderate expression of CDH6 were used to detect the binding activity of the antibodies to the cells. […] The cells were washed once with PBS, counted, resuspended to 2×10⁶ cells/mL in an FACS buffer (PBS+2% FBS), and then added to a 96-well plate at 50 μL/well. The chimeric antibodies were diluted with FACS buffer (PBS+2% FBS) and added to the 96-well plate at 50 μL/well, and the plate was incubated at 4° C. for 1 h. […] The dilution was added to the 96-well plate at 50 μL/well, and the plate was incubated at 4° C. for 1 h. After the plates were centrifuged and washed 2 times with PBS, the cells were resuspended in an FACS buffer. The mean fluorescence intensity (MFI) was measured using FACS Canton II (BD). Analysis was performed by the GraphPad Prism software, data were fitted, and EC50 values were calculated. The chimeric antibodies tested had strong binding to both OVCAR3 cells and PA-1 cells.

[2] = biological target: T1, human CDH6 on tumor cells (OVCAR3 …); assay: FACS, OVCAR3 cells
Protocol: as §1

[3] = biological target: T2, monkey CDH6 protein (cynoCDH6 ECD-his); assay: ELISA, coated antigen
Protocol: Human CDH6 protein (hCDH6 ECD-his, conventionally synthesized), monkey CDH6 protein (cynoCDH6 ECD-his, conventionally synthesized; the cynoCDH6 ECD sequence was derived from Uniprot #A0A2K5TW62 (19-615)), and murine CDH6 protein (mCDH6 ECD-his, conventionally synthesized; the mCDH6 ECD sequence was derived from Uniprot #P97326 (19-615)) were diluted with PBS to a final concentration of 1 μg/mL, and added to a 96-well ELISA plate at 100 μL/well. The plate was incubated at 4° C. overnight. The next day, the plate was washed 3 times with a plate washing solution (PBS+0.01% (v/v) Tween 20), and a blocking buffer (PBS+0.01% (v/v) Tween 20+2% (w/w) BSA) was added for blocking at room temperature for 2 h. The blocking buffer was discarded, and the plate was washed 3 times. The chimeric antibodies were diluted with 1% BSA+PBS (purchased from Cytiva, Cat. No. SH30264.01) and added to the 96-well plate at 50 μL/well. After incubation at 37° C. for 2 h, the plate was washed 3 times with a plate washing solution. […] The plate was incubated at 37° C. for 1 h and then washed 5 times with a plate washing solution. A TMB substrate (purchased from Seracare, Cat. No. 5120-0077) was added at 50 μL/well and incubated at room temperature for 10 min, then a stop solution (1.0 N HCl) was added at 50 μL/well. OD450 nm values were read using a microplate reader (Biotek). Analysis was performed by the GraphPad Prism software, data were fitted, and EC50 values were calculated. The chimeric antibodies tested all had strong binding to the human CDH6 protein, the monkey CDH6 protein, and the murine CDH6 protein.

EC50 [1] | Max MFI [1] | EC50 [2] | Max MFI [2] | EC50 [3] | Max OD450 [3] | Binder
1.97 nM | 4440 MFI | 2.08 nM | 17600 MFI | 0.017 nM | 2.72 OD450 | CHI-CDH6-13 (antibody, human IgG1, kappa, V domains shown, also called chimeric antibody of murine CDH6-13) VH: DVQLQESGPGLVKPSQSLSLTCSVTGYSITKDSYWNWIRQFPGSKLEWMGFISYDGSRHYNPSLKNRISITRDTSKNQFFLQLNSVTTEDTATYYCARRDYADYWGQGTTLTVSS VL: QIVLTQSPALMSAFPGEKVTMTCSATSSVSYIYWYQQKPRSSPKPWIYLTSNLASGVPARFSGSGSGTSYSLTINSLEAEDAATYYCQQWSSIPYTFGGGTKLEIKR
1.78 nM | 4690 MFI | 2.14 nM | 14500 MFI | 0.032 nM | 2.32 OD450 | CHI-CDH6-11 (antibody, human IgG1, kappa, V domains shown, also called chimeric antibody of murine CDH6-11) VH: QIQLQQSGPELVKPGASVRISCKASGYTFTDYYITWVKLRPGQGLEWIGWIYPGSVNIKYNEKFKGKATLTVDTSSSTAYMQLNSLTSEDSAVYFCARGGYSWFPYWGQGTLVTVSA VL: NIVMTQSPKSMSMSVGERVTLSCKASENVHTYVSWYQQKPEQSPKLLFYGASTRNTGVPDRFTGSGSATDFTLTISSVQAEDLADYYCGQSYSYPYTFGSGTKLEIKR
0.16 nM | 4400 MFI | 0.51 nM | 18200 MFI | 0.026 nM | 2.78 OD450 | CHI-CDH6-9 (antibody, human IgG1, kappa, V domains shown, also called chimeric antibody of murine CDH6-9) VH: QVQLQQPGAELVKPGASVKLSCKASGYTFTGYWMHWVRQRPGQGLEWIGEINPNNGGTNCNEQFKNKATLTVDKSSSTAYMQLSSLTSEDSAVFYCTISFGNYLFFDVWGAGTTVTVSS VL: DIQMTQSPASLAASVGETITITCQASENIYFSLAWYQQKQGKSPQLLIYNANTLEDGVPSRFVGSGSGTQYSMKINSIQPEDTATYFCDQTYDFPWTFGGGTKLEIKR
2.27 nM | 3150 MFI | 2.22 nM | 12500 MFI | 0.044 nM | 2.45 OD450 | CHI-CDH6-12 (antibody, human IgG1, kappa, V domains shown, also called CH1-CDH6-12; chimeric antibody of murine CDH6-12) VH: EVNLVESGGGLVQPGDSLTLSCSASGFTFTDYYMSWVRQFPGKALEWLALIRNKANSYTTEYSASVKGRFTISRDNSQSILYLQMNALRAEDSATYYCARDSYYSHDGFAYWGQGTLVTVSA VL: DIVLTQSPASLAVSLGQRATISCRASKSVSTSSYTYMHWYQQKPGQPPKLLIKFASYLESGVPARFSGSGSGTDFTLNIHPVEEEDAATYYCQHSREFPFTFGTGTKLEIKR
0.08 nM | 4070 MFI | 0.2 nM | 13900 MFI | 0.026 nM | 2.26 OD450 | CHI-CDH6-10 (antibody, human IgG1, kappa, V domains shown, also called chimeric antibody of murine CDH6-10) VH: QVQLQQPGAELVKPGTSVKMSCKASGYTFTSDWIAWVKQRPGQGLEWIGDIYPGSGRTHNNEKFNFKATLTVDTSSNTAYMQLSSLTSEDSAVYFCARPMLGRFDYWGQGTTLTVSS VL: DIVLTQSPASLAVSLGQRATISCRASESVSIHGTHLMHWYQQKPGQPPKLLIYAASNLESGVPARFSGSGSETDFTLNIHPVEEEDAATYFCQQSFEDPFTFGSGTKLEIKR
0.23 nM | 4710 MFI | 0.46 nM | 16100 MFI | 0.026 nM | 2.12 OD450 | CHI-CDH6-8 (antibody, human IgG1, kappa, V domains shown, also called chimeric antibody of murine CDH6-8) VH: EVQLQQSGPELVKPGDSVKMSCKASGYTFTDYYMAWIKQNHGKSLEWIGYIYPNNGGTDYNQKFRGKATLTVDKSSSAAYMELHSLTSEDSAVYYCAREIGTLYGDYYAMDYWGQGTSVTVSS VL: DIQMTQSPASLSASVGETVTITCRASENIDSYLAWYQQKQGKSPQLLVYTATLLADGVPSRFSGSGSGTQYSLKINSLQSEDVARYYCQHYYSTPPTFGSGTKLEIKR
0.26 nM | 5410 MFI | 0.43 nM | 15700 MFI | 0.039 nM | 2.55 OD450 | CHI-CDH6-14 (antibody, human IgG1, kappa, V domains shown, also called CHI-hCDH6-14; CH1-CDH6-14) VH: QIQLQQSGPELVKPGTSVKISCKASGYTFTDNYINWVRQRPGQGLEWIGWIYPGTGNSYYNEKFKGKATLTVDTSSSTAYMQFSSLTSEDSAVYLCASSYGDSFDYWGQGTTLTVSS VL: DIQMTQTTSSLSASLGNRVTISCRASQDIRNYLNWYQQKPDGTFKLLISYTSRLHSGVPSRFSGSGSGTDYSLTVSNLEPEDIATYYCQQYSQLPWTFGGGSRLEIKR
